According to publication PMC3500696:
Read-outs that look alike come from different tables or passages of the source.

Assays:
[1] = target: porcine CSF-1R expressed in Ba/F3 cells (pig)
[2] = target: porcine CSF-1R expressed in Ba/F3 cells (pig); remark: listed apart in the source

Molecule: bacterially produced porcine CSF-1 (active fragment Ser36-Arg189) (ligand)
- EC50, MTT cell viability assay, Ba/F3 cells expressing porcine CSF-1R [1]: 0.029 µg/mL

Molecule: recombinant human CSF-1 (from UniProt P09603 33-554) (ligand)
- EC50, MTT cell viability assay, Ba/F3 cells expressing porcine CSF-1R (compared with bacterially produced porcine CSF-1) [1]: 0.034 µg/mL
- EC50, MTT cell viability assay, Ba/F3 cells expressing porcine CSF-1R (compared with rhIL-34) [2]: 0.1 µg/mL

B1: recombinant human Interleukin 34 (ligand)
chain: NEPLEMWPLTQNEECTVTGFLRDKLQYRSRLQYMKHYFPINYKISVPYEGVFRIANVTRLQRAQVSERELRYLWVLVSLSATESVQDVLLEGHPSWKYLQEVETLLLNVQQGLTDVEVSPKVESVLSLLNAPGPNLKLVRPKALLDNCFRVMELLYCSCCKQSSVLNWQDCEVPSPQSCSPEPSLQYAATQLYPPPPWSPSSPPHSTGSVRPVRAQGEGLLP
- EC50, MTT cell viability assay, Ba/F3 cells expressing porcine CSF-1R [2]: 0.137 µg/mL
